The values that follow come from the RNAGym collection of RNA variant scans (doi:10.7554/elife.80360).

To fix the notation:
B1: HDV Ribozyme (parent)
chain: GGCCGGCAUGGUCCCAGCCUCCUCGCUGGCGCCGGCUGGGCAACAUUCCGAGGGGACCGUCCCCUCGGUAAUGGCGAAUGGGACCCA

The series covers variants of B1. The series can be described thus: self-cleavage, relative activity (ratio to wild type); higher = more cleavage; co-transcriptional.
On to GGUCGGCAUGGUCCCAGCCUCCUCGCUGGCGCCGGCUGGGCAACAUUCCGAGGGGACCGUCCCCUCCGUAAUGGCGAAUGGGACCCA, for which the self-cleavage was 0.772.
As for GGUCGGCAUGGUCCCAGCCUCCUCGCUGGCGCCGGCUGGGCAACAUUCCGAGGGGACCGUCCCCUCGGUAAUCGCGAAUGGGACCCA, the self-cleavage is 0.304.
The result for GGUCGGCAUGGUCCCAGCCUCCUCGCUGGCGCCGGCUGGGCAACAUUCCGAGGGGACCGUCCUCUCGGUAAUGGCGAAUGGGACCCA reads 0.645; that for GGUCGGCAUCGUCCCAGCCUCCUCGCUGGCGCCGGCUGGGCAACAUUCCGAGGGGACCGUCCCCUCGGUAAUGGCGAAUGGGACCCA, 0.762; that for GGUCGGCAUUGUCCCAGCCUCCUCGCUGGCGCCGGCUGGGCAACAUUCCGAGGGGACCGUCCCCUCGGUAAUGGCGAAUGGGACCCA, 0.372.
To GGUCGGCAUGGUCCCAGCCUCCUCGCUGGCGCCUGCUGGGCAACAUUCCGAGGGGACCGUCCCCUCGGUAAUGGCGAAUGGGACCCA belongs 0.141.
To GGUCGGCAUGGUCCCAGCCUCCUCGCUGGCGCCGGCUGGGCAACAUUCCGAGGGGACCGUCCCCUCGGUAAUGGCGAAUUGGACCCA belongs 0.114; to GGUCGGCAUGGUCCCAGCCUCCUCGCUGGCGCCGGCUGGGCAACAUUCCGAGGGGACCGUCCCCUCGGUAAUGGCGAAUCGGACCCA, 0.159; to GGUCGGCAUGGUCCCAGCCUCCUCGCUGGCGCCGGCUGGGCAACAUUCCGAGGGGACCGUCCCCUCGGUAAUGGCGAAUAGGACCCA, 0.175.
For GGUCAGCAUGGUCCCAGCCUCCUCGCUGGCGCCGGCUGGGCAACAUUCCGAGGGGACCGUCCCCUCGGUAAUGGCGAAUGGGACCCA, the self-cleavage worked out at 0.123.
Regarding GGUCGGCAUGGUCCCAGCCUCCUCGCUAGCGCCGGCUGGGCAACAUUCCGAGGGGACCGUCCCCUCGGUAAUGGCGAAUGGGACCCA, the self-cleavage came to 0.0294.
To GGUCGGCAUGGUCCCAGCCUACUCGCUGGCGCCGGCUGGGCAACAUUCCGAGGGGACCGUCCCCUCGGUAAUGGCGAAUGGGACCCA belongs 0.122.
To GGUCGGCAUGGUCCCAGCCUUCUCGCUGGCGCCGGCUGGGCAACAUUCCGAGGGGACCGUCCCCUCGGUAAUGGCGAAUGGGACCCA belongs 0.101; to GGUCGGCAUGGUCCCAGCCUCCUCGCUGGCGCCGGCUGGGGAACAUUCCGAGGGGACCGUCCCCUCGGUAAUGGCGAAUGGGACCCA, 0.499.
The result for GGUCGGCAUGGUCCCAGCCUCCUCGCUGGCGCCGGCUGGGAAACAUUCCGAGGGGACCGUCCCCUCGGUAAUGGCGAAUGGGACCCA reads 0.807.
As for GGUCGGCAUGGUCCCAGCCUCCUCGCUGGCGCCGGCUGGGCAACAUUCCGAGGGGACCGUCCCCUCGGUAAUGGCUAAUGGGACCCA, the self-cleavage came out at 0.973.
Take GGUCGGCAUGGUCCCAGCCUCCUCGCUGGCGGCGGCUGGGCAACAUUCCGAGGGGACCGUCCCCUCGGUAAUGGCGAAUGGGACCCA: the self-cleavage was 0.0769.
The result for GGUCGGCAUGGUCCCAGCCUCCUCGCUGGCGACGGCUGGGCAACAUUCCGAGGGGACCGUCCCCUCGGUAAUGGCGAAUGGGACCCA reads 0.053; that for GGUCGGCAUGGUCCCAGCCUCCUCGCUGGCGCCGGCUGGGCAACAUUCAGAGGGGACCGUCCCCUCGGUAAUGGCGAAUGGGACCCA, 0.843; that for GGUCGGCAUGGUCCCAGCCUCCUCGCUGGCGCCGGCUGGGCAACAUUCGGAGGGGACCGUCCCCUCGGUAAUGGCGAAUGGGACCCA, 0.68.
To GGUCGGCAUGGUCCCAGCCUCCUCGCUGGCGCCGGCUGGGCAACAUUCCGAGGAGACCGUCCCCUCGGUAAUGGCGAAUGGGACCCA belongs 0.633; to GGUCGGCAUGGUCCCAGCCUCCUCGCUGGCGCCGGCUGGGCAACAUUCCGAGGCGACCGUCCCCUCGGUAAUGGCGAAUGGGACCCA, 0.636.
To GGUCGGCAUGGUCCCAGCCUCCUCGGUGGCGCCGGCUGGGCAACAUUCCGAGGGGACCGUCCCCUCGGUAAUGGCGAAUGGGACCCA belongs 0.989.
As to GGUCGGCAUGGUCCCAACCUCCUCGCUGGCGCCGGCUGGGCAACAUUCCGAGGGGACCGUCCCCUCGGUAAUGGCGAAUGGGACCCA, the self-cleavage came to 0.361.
GGUCGGCAUGGUCCCAGCCUCCUCGCUGGCACCGGCUGGGCAACAUUCCGAGGGGACCGUCCCCUCGGUAAUGGCGAAUGGGACCCA: the self-cleavage was 0.329.
For the variant GGUCGGCAUGGUCCCAGCCUCCUCGCUGGCGCCGGCUGGGCAACAUUCCGAGGGGACCGUCCCCUCGGUAAUGGCGAAUGGGACCGA, the self-cleavage worked out at 0.848.
To GGUCGGCAUGGUCCCAGCCUCCUCGCUGGCGCCGGCUGGGCAACAUUCCGAGGGGACCUUCCCCUCGGUAAUGGCGAAUGGGACCCA belongs 0.943.
Regarding GGUCGGCAUGGUCCCAGCCUCCUCGCUGGCGCCGGCUGGGCAACAUUCCGAGGGGACCCUCCCCUCGGUAAUGGCGAAUGGGACCCA, the self-cleavage stood at 0.688.
The result for GGUCGGCAUGGUCCCAGCCUCCUCGCUGGCGCCGGCUGGGCAACAUUCCGAGGGGACCAUCCCCUCGGUAAUGGCGAAUGGGACCCA reads 0.925; that for GGUCGGCAUGGUCCCAGCCUCCUCGCUGGCGCCGGCUGGGCAACAUUCCGAGGGGACAGUCCCCUCGGUAAUGGCGAAUGGGACCCA, 0.818; that for GGUCGGCAUGGUCCCAGCCUCCUCGCUGGCGCCGGCUGGGCAACAUUCCGAGGGGACGGUCCCCUCGGUAAUGGCGAAUGGGACCCA, 0.767.
To GGUCGGCAUGGUCCCAGCCUCCUCGCUGGCGCCGGCUGGGCAACAUUCCGAAGGGACCGUCCCCUCGGUAAUGGCGAAUGGGACCCA belongs 0.896.
To GGUCGGCAUGGUCCCAGCCUCCUCGCUGGCGCCGGCUGGGCAACAUUCCGAUGGGACCGUCCCCUCGGUAAUGGCGAAUGGGACCCA belongs 0.723.
Turning to GGUCGGCAUGGUCCCAGCCUCCUCGCUGGCGCCGGCUGGACAACAUUCCGAGGGGACCGUCCCCUCGGUAAUGGCGAAUGGGACCCA, the self-cleavage was determined as 0.857.
In the case of GGUCGGCAUGGUCCCAGCCUCCUCGCUGGCGCCGGCUGGUCAACAUUCCGAGGGGACCGUCCCCUCGGUAAUGGCGAAUGGGACCCA, the self-cleavage stood at 0.594.
To GGUCGGCAUGGUCCCAGCCUCAUCGCUGGCGCCGGCUGGGCAACAUUCCGAGGGGACCGUCCCCUCGGUAAUGGCGAAUGGGACCCA belongs 0.161; to GGUCGGCAUGGUCCCAGCCUCGUCGCUGGCGCCGGCUGGGCAACAUUCCGAGGGGACCGUCCCCUCGGUAAUGGCGAAUGGGACCCA, 0.0193; to GGUCGGCAUGGUCCCAGCCUCCUCGCUGGCGCCGGCUGGGCAACAUUCCAAGGGGACCGUCCCCUCGGUAAUGGCGAAUGGGACCCA, 0.682.
The result for GGUCGGCAUGGUCCCAGCCUCCUCGCUGGCGCCGGCUGGGCAACAUUCCGAGGGGACCGUCCCCUCGGUAAUGGCGAAUGGGAACCA reads 0.665.
The result for GGUCGGCAUGGUCCCAGCCUCCUCGCUGGCGCCGGCUGGGCAACAUUCCGAGGGGACCGUCCCCUCGGUAAUGGCGAAUGGGAGCCA reads 0.636; that for GGUCGGCAUGGUCCCAGCCUCCUCGCUGUCGCCGGCUGGGCAACAUUCCGAGGGGACCGUCCCCUCGGUAAUGGCGAAUGGGACCCA, 0.0723.
Consider GGUCGGCAUGGUCCCAGCCUCCUCGCUGGCGCCGGCUGGGCAACAUUCCGAGGGGACCGUCCCUUCGGUAAUGGCGAAUGGGACCCA, for which the self-cleavage turned out to be 0.954.
With GGUCGGCAUGGUCCCAGCCUCCUCGCUGGCGCCGGCUCGGCAACAUUCCGAGGGGACCGUCCCCUCGGUAAUGGCGAAUGGGACCCA, the self-cleavage amounted to 0.122.
In the case of GGUCGGCAUGGUCCCAGCCUCCUCGCUGGCGCCGGCUAGGCAACAUUCCGAGGGGACCGUCCCCUCGGUAAUGGCGAAUGGGACCCA, the self-cleavage was determined as 0.0811.
On to GGUCGGCAUGGUCCCAGCCUCCUCGCUGGCGCCGGCUUGGCAACAUUCCGAGGGGACCGUCCCCUCGGUAAUGGCGAAUGGGACCCA, for which the self-cleavage turned out to be 0.111.
In the case of GGUCGGCAUGGUCCCAGCCUCCUCGCUGGCGCCGGCUGGGCAACAUUCCGAGGGAACCGUCCCCUCGGUAAUGGCGAAUGGGACCCA, the self-cleavage stood at 0.763.
To GGUCGGCAUGGUCCCAGCCUCCUCGCUGGCGCCGGUUGGGCAACAUUCCGAGGGGACCGUCCCCUCGGUAAUGGCGAAUGGGACCCA belongs 0.356.
The result for GGUCGGCAUGGUCCCAGCCUCCUCGCUGGCGCCGGGUGGGCAACAUUCCGAGGGGACCGUCCCCUCGGUAAUGGCGAAUGGGACCCA reads 0.0519; that for GGUCGGCAUGGUCCCAGCUUCCUCGCUGGCGCCGGCUGGGCAACAUUCCGAGGGGACCGUCCCCUCGGUAAUGGCGAAUGGGACCCA, 0.126.
For the variant GGUCGGCAUGGUCCCAGCGUCCUCGCUGGCGCCGGCUGGGCAACAUUCCGAGGGGACCGUCCCCUCGGUAAUGGCGAAUGGGACCCA, the self-cleavage amounted to 0.0171.
To GGUCGGCAUGGUCCCAGCCUCCUCGCUGGCGCCGGCUGGGCAACAUUCCGAGGGGACCGUUCCCUCGGUAAUGGCGAAUGGGACCCA belongs 0.923.
For the variant GGUCGGCAUGGUCCCAGCCUCCUCGCUGGCGCCGGCUGGGCAACAUUCCGAGGGGACCGUCCCCUCGUUAAUGGCGAAUGGGACCCA, the self-cleavage came to 0.866.
To GGUCGGCAUGGUCCCAGCCUCCUCGCUGGCGCCGGCUGGGCAACAUUCCGAGGGGACCGUCCCCUCGCUAAUGGCGAAUGGGACCCA belongs 0.781; to GGUCGGCAUGGUCCCAGCCUCCUCGCUGGCGCCGGCUGGGCAACAUUCCGAGGGGACCGUCCCCUCGAUAAUGGCGAAUGGGACCCA, 0.831.
To GGUCGGCAUGGUCCCAGCCUCCUCGCUGGCGCCGGCUGGGCAACAUUCCGAGGGGACCGUCCCCUCGGUAAUGGCGAAUGUGACCCA belongs 0.187.
The result for GGUCGGCAUGGUCCCAGCCUCCUCGCUGGCGCCGGCUGGGCAACAUUCCGAGGGGACCGUCCCCUCGGUAAUGGCGAAUGCGACCCA reads 0.0563.
With GGUCGGCAUGGUCCCAGCCUCCUCGCUGGCGCCGGCUGGGCAACAUUCCGAGGGGACCGUCCCCUCGGUAAUGGCGAAUGGGACGCA, the self-cleavage was determined as 0.87.
The result for GGUCGGCAUGGUCCCAGCCUCCUCGCUGGCGCCGGCUGGGCAACAUUGCGAGGGGACCGUCCCCUCGGUAAUGGCGAAUGGGACCCA reads 0.641; that for GGUCGGCAUGGUCCCAGCCUCCUCGCUGGCGCCGGCUGGGCAACAUUACGAGGGGACCGUCCCCUCGGUAAUGGCGAAUGGGACCCA, 0.675; that for GGUCGGCAUGGUCCCAGCCUCCUCGCUGGCGCCGGCUGGGCAACAUUCCGAGGGGACCGUCUCCUCGGUAAUGGCGAAUGGGACCCA, 0.762.
On to GGUCGGCAUGGUCCCAGCCUCCUCGCUGGCGCCGGCUGGGCAACAUUCCGAGGGGACCGUCACCUCGGUAAUGGCGAAUGGGACCCA, for which the self-cleavage is 0.973.
GGUCGGCAUGGUCCCAGCCUCCUCGCUGGCGCCGGCUGGGCAACAUUCCGAGGGGAGCGUCCCCUCGGUAAUGGCGAAUGGGACCCA: the self-cleavage amounted to 0.803.
The result for GGUCGGCAUGGUCCCAGCCUCCUCGCUGGCGCUGGCUGGGCAACAUUCCGAGGGGACCGUCCCCUCGGUAAUGGCGAAUGGGACCCA reads 0.769.
To GGUCGGCAUGGUCCCAGCCUCCUCGCUGGCGCCGGCUGGGCAAAAUUCCGAGGGGACCGUCCCCUCGGUAAUGGCGAAUGGGACCCA belongs 0.492.
